Experimental findings from patent US20190046652A1 (AADIGEN, published 2019) are described below.

Ends that are not written are not given here.

As a reminder, the Kd is a measure of binding affinity in units of concentration.

B1: VEPEP-3a (peptide)
peptide: XKWFERWFREWPRKRR
HELM: PEPTIDE1{[ac].[bAla].K.W.F.E.R.W.F.R.E.W.P.R.K.R.R.[SCCN[*:1]]}$$$$V2.0
SMILES: CC(=O)NCCC(=O)N[C@@H](CCCCN)C(=O)N[C@@H](Cc1c[nH]c2ccccc12)C(=O)N[C@@H](Cc1ccccc1)C(=O)N[C@@H](CCC(=O)O)C(=O)N[C@@H](CCCNC(=N)N)C(=O)N[C@@H](Cc1c[nH]c2ccccc12)C(=O)N[C@@H](Cc1ccccc1)C(=O)N[C@@H](CCCNC(=N)N)C(=O)N[C@@H](CCC(=O)O)C(=O)N[C@@H](Cc1c[nH]c2ccccc12)C(=O)N1CCC[C@H]1C(=O)N[C@@H](CCCNC(=N)N)C(=O)N[C@@H](CCCCN)C(=O)N[C@@H](CCCNC(=N)N)C(=O)N[C@@H](CCCNC(=N)N)C(=O)NCCS
notes: Synthetic cell-penetrating peptide
B2: C2 (peptide)
peptide: KKQVLAMEHLVT
modifications: not fully specified
B3: C4 (peptide)
peptide: KKQVRMAHLVLT
modifications: not fully specified
B4: PC4, also noted PC4D (peptide)
peptide: RWTEWEWW
modifications: also: cyclic version, linkage not given here

Test [1] concerns the target HIV integrase (HIV-1-LAI, UniProt P03367 1160-1447). Put plainly: cell-based or functional assay.
Test [2] addresses B4. As to the kind of experiment: fluorescence titration, curve fitting.
Test [3] has as its target B2. As to the kind of experiment: fluorescence titration, curve fitting.
In test [4] the target is B3. Put plainly: fluorescence titration, curve fitting.
Test [5] deals with cdk2/cyclin A complex (UniProt P24941 1-298; P20248 1-432). Put plainly: cell-based or functional assay.
Test [6] addresses CDK4/cyclin D complex (UniProt P11802 2-303). As to the kind of experiment: cell-based or functional assay.

CDK4/cyclin D complex, sequence (P11802 2-303, one chain of several): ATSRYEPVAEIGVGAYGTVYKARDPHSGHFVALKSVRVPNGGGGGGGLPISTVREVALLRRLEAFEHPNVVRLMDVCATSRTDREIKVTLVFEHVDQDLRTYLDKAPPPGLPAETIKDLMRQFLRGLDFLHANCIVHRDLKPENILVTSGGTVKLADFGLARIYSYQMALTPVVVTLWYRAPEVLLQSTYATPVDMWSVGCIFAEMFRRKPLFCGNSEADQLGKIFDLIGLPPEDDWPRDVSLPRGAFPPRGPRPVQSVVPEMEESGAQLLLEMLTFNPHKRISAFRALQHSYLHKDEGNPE

In the case of KWETWWET [PC6, also noted PC6D], the “IC50, antiviral activity (RT activity in supernatants of HIV-1 LAI infected PBMC), peptide with VEPEP-3 carrier” value in test [1] is 0.09 nM.
Molecule B1 came in with a Kd in test [2] of 50 to 100 nM. Moreover, the binding result in test [3] and in test [4] was “binds” throughout.
For the molecule B2, in test [5], the “IC50, proliferation of HEK-2 cells (C2 delivered by VEPEP-3)” value was 102 nM and the “IC50, proliferation of Hela cells (C2 delivered by VEPEP-3)” value came to 37 nM.
Regarding B3, in test [6], the “IC50, proliferation of HEK-2 cells (C4 delivered by VEPEP-3)” value worked out at 78 nM; the “IC50, proliferation of Hela cells (C4 delivered by VEPEP-3)” value is 35 nM; the “IC50, proliferation of MCF7 cells (C4 delivered by VEPEP-3)” value was determined as 58 nM.
As to B4, the “IC50, antiviral activity (RT activity in supernatants of HIV-1 LAI infected PBMC), peptide with VEPEP-3 carrier” value in test [1] was found to be 0.12 nM.
